Source: article PMC3307728

T1: DEAF1-FLAG (human, UniProt O75398 1-565)
T1 sequence: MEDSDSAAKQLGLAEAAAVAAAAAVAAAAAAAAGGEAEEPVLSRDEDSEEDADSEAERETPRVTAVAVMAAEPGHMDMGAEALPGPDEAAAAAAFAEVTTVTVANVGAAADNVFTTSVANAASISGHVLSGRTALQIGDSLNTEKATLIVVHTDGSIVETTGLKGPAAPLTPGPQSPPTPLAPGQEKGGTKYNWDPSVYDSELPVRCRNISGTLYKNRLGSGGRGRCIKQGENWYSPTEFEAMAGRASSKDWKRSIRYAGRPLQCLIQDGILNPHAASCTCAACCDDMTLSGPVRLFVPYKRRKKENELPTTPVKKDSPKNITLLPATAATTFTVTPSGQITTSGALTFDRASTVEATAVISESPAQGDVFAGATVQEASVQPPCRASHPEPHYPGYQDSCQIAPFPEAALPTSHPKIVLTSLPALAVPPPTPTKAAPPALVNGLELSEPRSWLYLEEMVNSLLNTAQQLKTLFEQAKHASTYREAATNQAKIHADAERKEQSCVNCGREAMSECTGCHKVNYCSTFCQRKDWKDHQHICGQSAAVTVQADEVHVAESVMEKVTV

B1: Mut 2 (dsDNA)
DNA 1: TTTTGCTTCCCACTTTTG
DNA 2: CAAAAGTGGGAAGCAAAA
B2: N52-69 (dsDNA)
DNA 1: TTCGGCTTCCCACTTCGG
DNA 2: CCGAAGTGGGAAGCCGAA

Assays:
DEAF1-FLAG [1] = target: T1, DEAF1-FLAG; assay: EMSA; no shift; EMSA: 100 mM KCl, 50 mM Tris pH 7.5, 1 mM DTT, 25 °C, 30 min protein preincubation then 30 min with 32P probe; 4% native gel; details: protein: recombinant; tags: FLAG (C-terminal, from the name DEAF1-FLAG; also written FLAG-DEAF1); chain copies: 2; label: 32P in EMSA
Ku70;FLAG-Ku80 = Ku70;FLAG-Ku80 (human?;human?, UniProt P12956;P13010 1-609;1-732, |); assay: EMSA; DNA end binding; EMSA: 100 mM KCl, 50 mM Tris pH 7.5, 1 mM DTT, 25 °C, 30 min protein preincubation then 30 min with 32P probe; 4% native gel; details: protein: recombinant;recombinant; tags: none;FLAG (N-terminal, from the name); copies: 1;1; label: 32P in EMSA
Chain of Ku70;FLAG-Ku80 (P12956 whole entry, chain 1 of 2): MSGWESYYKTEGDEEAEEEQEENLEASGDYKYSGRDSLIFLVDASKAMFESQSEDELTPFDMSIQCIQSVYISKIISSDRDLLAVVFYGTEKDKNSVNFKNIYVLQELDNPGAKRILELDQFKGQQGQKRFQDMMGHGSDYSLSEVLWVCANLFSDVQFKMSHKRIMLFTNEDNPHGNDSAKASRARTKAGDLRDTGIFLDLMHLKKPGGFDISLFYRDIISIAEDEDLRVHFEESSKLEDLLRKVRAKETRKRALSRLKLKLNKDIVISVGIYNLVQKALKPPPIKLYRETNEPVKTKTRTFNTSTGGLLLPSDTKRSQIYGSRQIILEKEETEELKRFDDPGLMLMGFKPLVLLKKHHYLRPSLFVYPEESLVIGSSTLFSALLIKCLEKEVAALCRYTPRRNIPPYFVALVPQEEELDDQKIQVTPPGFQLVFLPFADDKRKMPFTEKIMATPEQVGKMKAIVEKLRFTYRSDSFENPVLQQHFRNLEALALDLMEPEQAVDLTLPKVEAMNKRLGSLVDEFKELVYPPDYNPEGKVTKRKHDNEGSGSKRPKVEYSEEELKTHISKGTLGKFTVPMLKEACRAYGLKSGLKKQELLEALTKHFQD
Chain of Ku70;FLAG-Ku80 (P13010 whole entry, chain 2 of 2): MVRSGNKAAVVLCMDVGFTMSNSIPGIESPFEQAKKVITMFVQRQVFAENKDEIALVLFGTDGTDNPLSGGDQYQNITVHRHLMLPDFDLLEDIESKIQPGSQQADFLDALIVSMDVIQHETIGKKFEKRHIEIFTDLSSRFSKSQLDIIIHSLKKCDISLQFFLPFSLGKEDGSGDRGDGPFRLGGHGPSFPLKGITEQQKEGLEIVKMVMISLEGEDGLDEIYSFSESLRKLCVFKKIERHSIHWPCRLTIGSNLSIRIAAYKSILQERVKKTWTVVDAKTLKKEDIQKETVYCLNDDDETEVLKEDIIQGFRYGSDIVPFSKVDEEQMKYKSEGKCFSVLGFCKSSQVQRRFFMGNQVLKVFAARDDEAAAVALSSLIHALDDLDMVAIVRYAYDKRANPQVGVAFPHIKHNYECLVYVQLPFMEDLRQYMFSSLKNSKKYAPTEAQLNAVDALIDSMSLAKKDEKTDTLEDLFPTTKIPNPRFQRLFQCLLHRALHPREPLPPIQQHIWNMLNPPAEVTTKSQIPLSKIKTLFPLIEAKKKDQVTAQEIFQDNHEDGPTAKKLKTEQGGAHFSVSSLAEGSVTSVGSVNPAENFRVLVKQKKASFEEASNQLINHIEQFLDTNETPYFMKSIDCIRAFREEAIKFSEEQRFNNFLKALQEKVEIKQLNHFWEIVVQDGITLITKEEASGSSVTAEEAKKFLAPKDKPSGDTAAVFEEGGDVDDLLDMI

DEAF1-FLAG [2] = target: T1, DEAF1-FLAG; assay: EMSA; doublet of shifted bands; EMSA: 100 mM KCl, 50 mM Tris pH 7.5, 1 mM DTT, 25 °C, 30 min protein preincubation then 30 min with 32P probe; 4% native gel; details: protein: recombinant; tags: FLAG (C-terminal, from the name DEAF1-FLAG; also written FLAG-DEAF1); chain copies: 2; label: 32P in EMSA

Row | Binder | binding result (DEAF1-FLAG [1]) | binding result (Ku70;FLAG-Ku80) | binding result (DEAF1-FLAG [2])
1 | B1 | no binding | binds | –
2 | B2 | – | binds | binds
